{"source": "patent US20080113907A1", "about": "“Uses Of Galectin-2” (Charite-Universitat-Smedizin Berlin, priority 2004, published 2008)", "molecules": {"B1": {"name": "galectin-2: β-galactoside binding lectin, non-covalent dimer with subunits of about 14 kDa; recombinant human or rat (SEQ ID NO:1, 2) (protein)", "chain": "MAGELEVKNMDMKPGSTLKITGSIADGTDGFVINLGQGTDKLNLHFNPRFSESTIVCNSLDGSNWGQEQREDHLCFSPGSEVKFTVTFESDKFKVKLPDGHELTFPNRLGHSHLSYLSVRGGFNMSSFKLKE"}}, "key": {"PBT [1]": {"tested_on": "PBT", "assay": "Apoptosis regulator proteins by immunoblotting and flow cytometry", "assay_type": "cell-based, human", "experimental": "For immunoblotting cells were washed in PBS, and lysed in cell lysis buffer (1% Triton-X, 0.5% NP-40, 0.1% SDS, 0.5% sodium deoxycholate, 5 mM EDTA, 50 mM and 50 mM protease- and phosphatase-inhibitor cocktail 2, 1 mM PMSF, 100 μg/ml trypsin-chymotrypsin inhibitor, 100 μg/ml chymostatin in PBS). The concentration of proteins in each lysate was measured using the Bio-Rad protein assay (Bio-Rad Laboratories, Hercules, Calif.). Equivalent amounts of protein (10 μg) were fractionated on a 10-20% Tris-glycine gel and electrotransferred to a nitrocellulose membrane (Novex, San Diego, Calif.). Membranes were blocked with 5% milk in 0.1% Tween 20-PBS (Fisher Scientific, Hanover Park, Ill.), followed by incubation for 60 m in at room temperature with the indicated primary antibody. The membranes were washed six times with 0.1% Tween 20-PBS and then incubated for 1 h with the appropriate horseradish peroxidase-conjugated secondary antibody (Santa Cruz Biotechnology), washed, and incubated with the chemiluminescent substrate (Perkin-Elmer, Carlsbad, Calif.) for 5 minutes. The membranes were then exposed to film (Amersham, Arlington Heights, Ill.).\nFor surface staining, cells were washed twice in ice-cold PBS and 1×10^6 cells were resuspended in flow buffer (HBSS containing 1% BSA and 0.1% sodium azide). Cells were incubated with the respective mAb at predetermined saturating concentrations or with isotype-matched nonspecific mouse mAb (DAKO) for 30 min at 4° C., washed twice with flow buffer, and incubated with FITC-conjugated goat anti-mouse IgG for 30 min at 4° C. The cells were again washed twice with flow buffer, fixed in 1% paraformaldehyde and analyzed by a single laser flow cytometer (FacsCalibur, […]), using Cell Quest software (BD Pharmingen). Cells stained with a negative control Ab were gated to contain <2% positive cells. To perform analysis of intracellular proteins, cells were washed twice with PBS, adjusted to 1×10^6 cells per sample, and fixed in 90% methanol at −20° C. After fixation, cells were washed twice with PBS and incubated with a monoclonal mouse anti-bax, Bcl-2, Rb, Cyclin A, p21, p27, or p53 antibody for 45 minutes at 4° C., followed by an incubation with a goat anti-mouse FITC-conjugated mAb (Biosource) for 45 minutes at 4° C. Thereafter cells were washed and analyzed by flow cytometry as described above. The background level of immunofluorescence was determined by incubating cells with FITC-conjugated mouse IgG (isotype control)."}, "[2]": {"tested_on": "acute and chronic DSS colitis", "assay": "Dose finding studies in acute and chronic DSS colitis", "assay_type": "in vivo, BALB/c mice", "experimental": "Acute and chronic colitis were induced in BALB/c mice by adding 5% DSS to the drinking water for 7 days to induce acute colitis, or for 3 cycles of 7 days DSS following 7 days without DSS to induce chronic colitis, respectively (Siegmund B, Lehr H A, Fantuzzi G. Leptin: a pivotal mediator of intestinal inflammation in mice. Gastroenterology 2002; 122: 2011-2025). Animals with acute or chronic colitis were treated i.p. with either physiological NaCl as control or Gal-2 once daily (od), twice daily (bid) or three time daily (tid) for 10 days. In one experimental protocol Gal-2 and NaCl 0.9% were injected subcutaneously. Gal-2 doses ranging from 0.5-2 mg/kg body weight in individual doses and total daily doses of 3 mg/kg body weight and different dosing regimens were evaluated. Tacrolimus (1 mg/kg bodyweight), Infliximab (10 mg/kg bodyweight), prednisolone (1 mg/kg bodyweight), all well-known modulators of experimental colitis and human inflammatory bowel diseases were used as positive controls.\nPBT were isolated, stimulated with CD3 for 3 days and cytokine secretion was determined by cytometric bead array (CBA) analysis as described previously (Sturm A, Rilling K, Baumgart D C, Gargas K, Abou-Ghazale T, Raupach B, Eckert J, Schumann R R, Enders C, Sonnenborn U, Wiedenmann B, Dignass A U. Escherichia coli Nissle 1917 distinctively modulates T-cell cycling and expansion via toll-like receptor 2 signaling. Infect.Immun. 2005; 73: 1452-1465.) Mucosal recruitment of granulocytes was assessed by Myeloperoxidase activity (Rath H C, Herfarth H H, Ikeda J S, Grenther W B, Hamm T E, Jr., Balish E, Taurog J D, Hammer R E, Wilson K H, Sartor R B. Normal Luminal Bacteria, Especially Bacteroides Species, Mediate Chronic Colitis, Gastritis, and Arthritis in HLA-B27/Human beta 2 Microglobulin Transgenic Rats. Journal of Clinical Investigation 1996; 98: 945-953)."}, "PBT [3]": {"tested_on": "PBT", "assay": "Mitochondrial membrane potential (rhodamine 123)", "assay_type": "cell-based, human", "conditions": "CD3 activated PBT, 50 μg/ml", "text": "Rhodamine 123 is a fluorescent cationic dye that accumulates in the mitochondrial matrix because of its charge and solubility in both the inner mitochondrial membrane and matrix space (22). Based on the observation that accumulation of this lipophilic dye is in proportion to ΔΨ, and that deenergizing of the mitochondria decreases rhodamine 123 fluorescence (23), the inventors measured the mitochondrial membrane potential of PBT. Cells were stimulated in the presence or absence of galectin-2 with CD3 for 24 h, harvested, washed and resuspended in 1 ml of rhodamine 123 (10 μg/ml, Sigma-Aldrich) for 30 min at 37° C. in the dark. The samples were washed twice in cold PBS and fluorescence analysis by flow cytometry using an argon ion laser with an emission filter at 530 nm was performed immediately without fixation (BD FacsCalibur). PBT without stimulation and unstained samples were used as controls."}}, "data": [{"molecule": "B1", "values": [{"measurement": "bax protein expression", "setting": "PBT [1]; 0, 25, 50 μg/ml, 48 h", "value": "increases"}, {"measurement": "bcl-2 protein expression", "setting": "PBT [1]; 0, 25, 50 μg/ml, 48 h", "value": "significantly reduces"}, {"measurement": "cytochrome c release", "setting": "PBT [1]; data not shown", "value": "dose-dependently increased cytochrome c release in activated, but not resting T cells"}, {"measurement": "DNA-fragmentation factor (DFF)", "setting": "PBT [1]; immunoblotting", "value": "dose-dependently upregulated"}, {"measurement": "effect on disease activity (DAI)", "setting": "[2]; acute and chronic DSS colitis, i.p., different dosing intervals and doses", "value": "significantly reduced disease activity"}, {"measurement": "safety and toxicity", "setting": "[2]; acute and chronic DSS model", "value": "did not reveal any abnormalities"}, {"measurement": "myeloperoxidase, mucosal granulocyte infiltration", "setting": "[2]; data not shown", "value": "significant reduction of mucosal granulocyte infiltration"}, {"measurement": "deaths", "setting": "[2]; doses 1-3 mg/kg body weight", "value": "no deaths were observed"}, {"measurement": "human versus rat Gal-2, disease activity", "setting": "[2]; equivalent doses and treatment regimens", "value": "No significant differences were observed"}, {"measurement": "improvement of disease activity", "setting": "[2]; optimal dose 2×1 mg/kg bodyweight", "value": "more than 250%"}, {"measurement": "total daily dose range with largest benefit on disease activity", "setting": "[2]; per day", "value": "1.5-3 mg/kg bodyweight"}, {"measurement": "effect on disease activity (DAI)", "setting": "[2]; subcutaneous (sc) administration", "value": "only in minor and not significant improvement of disease activity"}, {"measurement": "effects compared with positive controls", "setting": "[2]; tacrolimus 1 mg/kg, infliximab 10 mg/kg, prednisolone 1 mg/kg", "value": "comparable with the potent immunomodulator tacrolimus and more potent as the effects observed for prednisolone and infliximab"}, {"measurement": "histological analyses of intestinal injury and inflammation", "setting": "[2]; versus control animals", "value": "significant reduction of intestinal injury and inflammation"}, {"measurement": "mitochondrial polarization potential", "setting": "PBT [3]", "value": "clear decrease in the mitochondrial polarization potential"}]}]}
